Results reported in the DeepSol protein solubility set.

Experiment: soluble on expression in E. coli; label from the status in PepcDB or PDB records

Sequence	soluble on expression in E. coli
MSLKCEYLIIGSGIAGYNALKELLQIKPNSRIIMITSDKYYPYDRPPLSKDYLKGKLEKDMLFFESDDFYKRDNLEVMLNKSVERIDANLKEAILNDGSVISFDKALISTGGRPRRLNIPGSENALYLRSLDDADRIREAASKGKNALIIGAGFIGVEVASSLITLGVKTTVVEVMPYIWNTFVDEKVSRVIQQYLESKGINFILNESVKEIQGKIATTSSGRKIEADMFLIAVGISPNVELAQRSGMQVDNGIVVNEYLETSARDIYAAGDIANIFDPREGKRKRIEHWNNAEYTGKLAARNMAGSREAYNFISSIWSDIFDLHIESAGETRNYDEYIIRGKFELERPRFSVIYLKGGIIKGYLAINRNVKEIIALNKLIQKQADVSSKRDKLADESFDLQKLLIEGHHHHHH	soluble
MRNTDRKRAQGVSRLDRRDSRMRRVGTYGGRKLIEYDQERWNILAEKRERAKEVMESLLSFGIESVVYGSVARGDVNEKSDVDIFIPEVIPSYKVEVALDGFEVLEKRIVQATPNYAIKGEFVLSDNTTVSFPLVRMREREMDFYRFGGCVDYRGLMEKRRVPGVDKRLVLIIPTGKGHREIPLTDIHPSSVARMLGVSIDIVTERIRVLTRRREVGRTGIFLCETIPSTDCFEQALKEIASRNPAVRRRLD	not soluble
MAMQIKGVIFDFDGTLLDSVELRITAWKKAFQNFGVNVPEDLIRPMIGYPGIDLAKKFVKNPLDVEMLQEDYFLKNIESAKFFQDVIPTLAELRKRGIKTAVVTSTRRIVMQKFSLQVDHVVTIDDVSKGKPDPEPYLKALKMMGIPAEECIVVGDIENDLIPAKKLRCISVLVKHGRDISSNYADYEIENIADILNVIDHLAEKNNR	not soluble
MAMKERYLIIDGYNMIGQSPTLSAIAKENLEEARMQLIDAIANYNAVISDEIICVFDAYDQSGVEREYMYHGVKTIFTKEKETADSFIERYVYELYDKHTKHITVVTSDMSEQHAIFGSGAYRISSREMWRDLKENEIDVSKSLDDISENKPRTRIPLSSEILAEFEKIRRGHHKKLEHHHHHH	not soluble
MSLRWLSLNTATVRKQGDLVAIIDACAKHGIRAIDPWRDQVASVGLDRAARAVRDAGLELSGYCRGGMFTSDASRRGEVRDDNRRCVDEAKALGAPCIVLVVGGLPQYSRPGSEPSKDIAAARGQVEEALADMLDYARQAGLPLAIEPLHPAYAADRACVNTTKQALDICDRLDPGRTGMLGVALDVYHIWWDPELMSQIARAGRDRLLAFHVCDWLVPTRDILNDRGMMGDGVIDIKSVRKAVEAQGFAGYSEIEIFSNDWWAKPMDEVLRTCITRHRTVVEGHHHHHH	not soluble
MFFNKSLQQENQRLKQELYSLQQIQQSLDEEMLRLTLDAKGNVTSANQKFLQQLSLSDKDILAKHISDLVPSNVRNTDHFYRMKQSVQAKAFWNGAFQITKGDGEEAWLRVVIQPVRNASDQVESFFVFASELTRTITTSREYEDMLNALSRSMAVIEFTLDGTVLKANDNFLSTMGYKHEQIVGKHHRIFCLPEEANSSAYHDFWKRLASGQFVTDRFKRVDQHGSVVWLEASYNPIHNDRGELYKVVKFATNITQQVLQ	not soluble
MILVTGSSGQIGTELVPYLAEKYGKKNVIASDIVQRDTGGIKFITLDVSNRDEIDRAVEKYSIDAIFHLAGILSAKGEKDPALAYKVNMNGTYNILEAAKQHRVEKVVIPSTIGVFGPETPKNKVPSITITRPRTMYGVTKIAAELLGQYYYEKFGLDVRSLRYPGIISYKAEPTAGTTDYAVEIFYYAVKREKYKCYLAPNRALPMMYMPDALKALVDLYEADRDKLVLRNGYNVTAYTFTPSELYSKIKERIPEFEIEYKEDFRDKIAATWPESLDSSEASNEWGFSIEYDLDRTIDDMIDHISEKLGIEGKHAL	soluble
MKITLIIPTYNAGSLWPNVLDAIKQQTIYPDKLIVIDSGSKDETVPLASDLKNISIFNIDSKDFNHGGTRNLAVAKTLDADVIIFLTQDAILADSDAIKNLVYYFSDPLIAAVCGRQLPHKDANPLAVHARNFNYSSKSIVKSKADIEKLGIKTVFMSNSFAAYRRSVFEELSGFPEHTILAEDMFMAAKMIQAGYKVAYCAEAVVRHSHNYTPREEFQRYFDTGVFHACSPWIQRDFGGAGGEGFRFVKSEIQFLLKNAPFWIPRALLTTFAKFLGYKLGKHWQSLPLSTCRYFSMYKSYWNNIQYSSSKEIKLEHHHHHH	soluble
MSLGKEGLERLVYMVDRSDSLSLLQERIDSIEVVAPQVFSFTLEGTVYGEVDPRIIALAKERGKKLMPLVMNENFEKEKIKAFLANPKAQERLIGSLIKIALKEGFGGWQLDFEHLGITSKEAYTQLVRQLYARLKEHHLSLSIAVVPPRGEEPKNAYGAKVFEDWVSPYDLKALAEHSDFLTLMAYDQHTGGSTPGPIASRAWVEGIIQEALIWVPKEKLSLGIPLYSRLWHAGIKEEKMRGVAKSLTFAGAMDWLERQGAETLWLERDGVKWAMGERGGVKEYLFMEEARSLALKVELAKRYGLRGISLWRLGQEDPRIWDELEGHHHHHH	soluble
MGLFQSDKAAEEIDPPQDVTFVNDEAGANSNTTAAKKTESEKSDTAKADQASSTVMRELYLIDKNGYVVAQTLPLPKSESTAKQALEYLVQGGPVSEILPNGFRAVLPADTTVNVDIKKDGTAIADFSNEFKNYKKEDEQKIVQSVTWTLTQFSSIDKVKLRINGHELKEMPVGGTPISDDLSRKDGINLETAGVNDLTATHPLTVYYLAENEDSEYYVPVTKRIDNSEKDDITAAINELAKGPSKVSGLLTDFSEDVKLVSKPKIKDGRVTLDFNQSIFGSADEKTKMISSEVLNSIVLTLTEQPDVKSVSVKVNGKSELVNEKGEKLTEPVSRPSQVNTGSFLEHHHHHH	soluble
MATGSGSLIWFRKGLRVHDNPALEYASKGSEFMYPVFVIDPHYMESDPSAFSPGSSRAGVNRIRFLLESLKDLDSSLKKLGSRLLVFKGEPGEVLVRCLQEWKVKRLCFEYDTDPYYQALDVKVKDYASSTGVEVFSPVSHTLFNPAHIIEKNGGKPPLSYQSFLKVAGEPSCAKSELVMSYSSLPPIGDIGNLGISEVPSLEELGYKDDEQADWTPFRGGESEALKRLTKSISDKAWVANFEKPKGDPSAFLKPATTVMSPYLKFGCLSSRYFYQCLQNIYKDVKKHTSPPVSLLGQLLWREFFYTTAFGTPNFDKMKGNRICKQIPWNEDHAMLAAWRDGKTGYPWIDAIMVQLLKWGWMHHLARHCVACFLTRGDLFIHWEQGRDVFERLLIDSDWAINNGNWMWLSCSSFFYQFNRIYSPISFGKKYDPDGKYIRHFLPVLKDMPKQYIYEPWTAPLSVQTKANCIVGKDYPKPMVLHDSASKECKRKMGEAYALNKKMDGKVDEENLRDLRRKLQKDEHEESKIRNQRPKLK	soluble
MEKAADLQDTASLTLKFKFNPKLGIDNPVLSLAEDHDPYDPWSLERPRFCLLSKEEGKSFGFHLQQELGRAGHVVCRVDPGTSAQRQGLQEGDRILAVNNDVVEHEDYAVVVRRIRASSPRVLLTVLARHAHDVARAQLGEDAHLCPTLGPGVRPRLCHIVKDEGGFGFSVTHGNQGPFWLVLSTGGAAERAGVPPGARLLEVNGLWQSGQQVTLLVAGPEVEEQCRQLGLPLAAPLAEGWALPTKPRCLHLEKGPQGFGFLLREEKGLDGRPGQFLWEVDPGLPAKKAGMQAGDRLVAVAGESVEGLGHEETVSRIQGQGSCVSLTVVDPEADRFFSMVRLSPLLFLENTEAPASPQGSSSASLVETEDPSLEDTSVPSVPLGSRQCFLYPGPGGSYGFRLSCVASGPRLFISQVTPGGSAARAGLQVGDVILEVNGYPVGGQNDLERLQQLPEAEPPLCLKLAARSLRGLEAWIPPGAAEDWALASDLL	soluble
MDNDKKDKIILSGELTNHRFNFTKDGENGYSAYEVDRFLDQLVHTLTHYEAQRNREEEMKTAYEKLFQDRDEILKRCSKLEAELNNFYENGYSNRVLISRVQALENKIESLPSGQNDRLERIEKLLKRVIKHWTDGEDLSYGDFDDDFF	soluble
MGSDKIHHHHHHEELEYKGMNTLQISNVDDLISFYQYADDRIPLISGHRGGRGKGYPENSMETFENTLSYTPATFEIDPRLTKDSVIVLFHDDTLERTSNGTGKVSDYTWEELQNFRLKDPEGNITNYRIPTLEEAIRWARGKTILILDKKDVPMERTAQLITDMQAEPYVMITVHDGASARFFYEKNPNFMFEAFVKTKEAVQDYEDNGIPWSHIMAYVGPKITPEVREVIDMLHERGVMCMISTAPSDDKLSTPESRAEAYRMIIRQGVDIIESDRPIEVAEAISSLIPVSSSKGKFFSTL	not soluble
QDVIVRTAVAEDVAPIIKMRKHIKEFGSRDENEELIIRQIEKGVKRIYYIEQDQEVVAVAETSAENSFSAMITGVATSDGYRQRGFASTLLKKLCCDVLAEGKKPCLFYDNPVAGEIYHRLGFEHTGDFVMYK	not soluble
MYLKRPIWSDGASATPENPSESETGEESDAASMVVEELVTSLNTQRLYRELTLSLRTGLRDACAEFSFLRIRGLRSLLKTLRTVADSDSIIRLFSHTQTISDLQLVPVLFQHSLKEAEDDKVTSLDHIFSVEPMKITSPSTDAEVAVALRVLEGCCLLHPQSTVLAHKHGAVRVMMNVLSTRGVLEQGACLDALISVLLDSSANQVDFGACNGIEEVAMLMRDKQADENLSIYTIKIAVNEDSFPFCLFWLRCGEFLLLLVGHVNGKDRSPIASVNEDIRRLLGEKSASLIWAASQFGSTGDPEQRITALHIQAGRVLESLDLY	soluble
SLQTLEKSVIGVRVAVEASPVGASRRAREGWRRPASRHEAGALPLPSEQHITFFKLRPGCLDFLRRVSQTFELYMYTMGTALHAATALRILDPKRRFFGRRVFSRQDAVNGLKAIERIFPHDQKMVLVVDDLECMWRYSPCCIKVQGYHYFADVSAADARRISPHSYTQWLSMARPFCNFLPSERIKLCRHVRRCLPSKDA	not soluble
MIRIDSVTKRYPDGTVAVDRLSLEIPDRSITVLVGPSGCGKTTTLRMINRMVEPSEGTILLDGADITKQPVNTLRRSMGYVIQNAGLFQHRTIVDNIATVPRMLGWGKERARSRARELMERVGLDASLARRYPYQLSGGQQQRVGVARALASDPPVLLMDEPFSAVDPVVRKGLQEELLRIQDELGKTIVFVTHDIDEAIRLGTMVAVMRTGGHLAQFAPPAELLSAPADAFVEDFLGTDRGIRRLSFFPSAGLELLTTPVVAIDSTAEQIAARGTPDVPYLLVTDVDGKALGWSEPKDLTAGKVVPERLLPYGRPFESGKDSLRAALDCAVLSPTGWAVAVDGTGRVVGVVSQETIGEAIRGAHAERRKADLAGLEHHHHHH	not soluble
EMETYVNKLHEGSTYTAAVQYNVLEKDDDPASLTIWVPMFQSSMPADLLIKELANVNILVKQISTPKGPSLRVMINSRSAVLAQMPSKFTICANVSLDDRSKLAYDVTTPCEIKACSLTCLKSKNMLTTVKDLTMKTLNPTHDIIALCEFENIVTSKKVIIPTYLRSISVRNKDLNTLENITTTEFKNAITNAKIIPYSGLLLVITVTDNKGAFKYIKPQSQFIVDLGAYLEKESIYYVTTNWKHTATRFAIKPRED	soluble
GVSVDARIAKNVEEFLAAAQEINPSYHLISGYRSVAYQTELYNSYVQQEMADDPTLTESQAEKKVQTYSQPPGASEHQTGLAIDMSTVDSLDEADPATVAKVKKIAPKYGFVLRFPDGKTSSTGVGYEDWHFRYVGKESAEYMTEHNLTLEEYLVLLKEKTK	not soluble
MTLKLIENLQKLGFTGNEAKVYSSLVCLKQAKASEIAENAGVPRPKIYGTLRTMEKKGYVRIIEGEPTIFCCIQPEELILRLKSDFLLFLRETASELNSLNPGNSDFVSEGFYRERIKV	not soluble
